The chains are these.
B1: Orc2 (natural protein)
chain: MLNGEDFVEHNDILSSPAKSRNVTPKRVDPHGERQLRRIHSSKKNLLERISLVGNERKNTSPDPALKPKTPSKAPRKRGRPRKIQEELTDRIKKDEKDTISSKKKRKLDKDTSGNVNEESKTSNNKQVMEKTGIKEKREREKIQVATTTYEDNVTPQTDDNFVSNSPEPPEPATPSKKSLTTNHDFTSPLKQIIMNNLKEYKDSTSPGKLTLSRNFTPTPVPKNKKLYQTSETKSASSFLDTFEGYFDQRKIVRTNAKSRHTMSMAPDVTREEFSLVSNFFNENFQKRPRQKLFEIQKKMFPQYWFELTQGFSLLFYGVGSKRNFLEEFAIDYLSPKIAYSQLAYENELQQNKPVNSIPCLILNGYNPSCNYRDVFKEITDLLVPAELTRSETKYWGNHVILQIQKMIDFYKNQPLDIKLILVVHNLDGPSIRKNTFQTMLSFLSVIRQIAIVASTDHIYAPLLWDNMKAQNYNFVFHDISNFEPSTVESTFQDVMKMGKSDTSSGAEGAKYVLQSLTVNSKKMYKLLIETQMQNMGNLSANTGPKRGTQRTGVELKLFNHLCAADFIASNEIALRSMLREFIEHKMANITKNNSGMEIIWVPYTYAELEKLLKTVLNTL
B2: Cdc6 (natural protein)
chain: MSAIPITPTKRIRRNLFDDAPATPPRPLKRKKLQFTDVTPESSPEKLQFGSQSIFLRTKALLQKSSELVNLNSSDGALPARTAEYEQVMNFLAKAISEHRSDSLYITGPPGTGKTAQLDMIIRQKFQSLPLSLSTPRSKDVLRHTNPNLQNLSWFELPDGRLESVAVTSINCISLGEPSSIFQKIFDSFQDLNGPTLQIKNMQHLQKFLEPYHKKTTFVVVLDEMDRLLHANTSETQSVRTILELFLLAKLPTVSFVLIGMANSLDMKDRFLSRLNLDRGLLPQTIVFQPYTAEQMYEIVIQKMSSLPTIIFQPMAIKFAAKKCAGNTGDLRKLFDVLRGSIEIYELEKRFLLSPTRGSLNSAQVPLTPTTSPVKKSYPEPQGKIGLNYIAKVFSKFVNNNSTRTRIAKLNIQQKLILCTIIQSLKLNSDATIDESFDHYIKAITKTDTLAPLQRNEFLEICTILETCGLVSIKKTKCKGKTKRFVDKIDVDLDMREFYDEMTKISILKPFLH
B3: Orc6 (natural protein)
chain: MSMQQVQHCVAEVLRLDPQEKPDWSSGYLKKLTNATSILYNTSLNKVMLKQDEEVARCHICAYIASQKMNEKHMPDLCYYIDSIPLEPKKAKHLMNLFRQSLSNSSPMKQFAWTPSPKKNKRSPVKNGGRFTSSDPKELRNQLFGTPTKVRKSQNNDSFVIPELPPMQTNESPSITRRKLAFEEDEDEDEEEPGNDGLSLKSHSNKSITGTRNVDSDEYENHESDPTSEEEPLGVQESRSGRTKQNKAVGKPQSELKTAKALRKRGRIPNSLLVKKYCKMTTEEIIRLCNDFELPREVAYKIVDEYNINASRLVCPWQLVCGLVLNCTFIVFNERRRKDPRIDHFIVSKMCSLMLTSKVDDVIECVKLVKELIIGEKWFRDLQIRYDDFDGIRYDEIIFRKLGSMLQTTNILVTDDQYNIWKKRIEMDLALTEPL

The target of one assay is T1, Mcm5 (S. cerevisiae, UniProt P29496 1-775).
T1 sequence: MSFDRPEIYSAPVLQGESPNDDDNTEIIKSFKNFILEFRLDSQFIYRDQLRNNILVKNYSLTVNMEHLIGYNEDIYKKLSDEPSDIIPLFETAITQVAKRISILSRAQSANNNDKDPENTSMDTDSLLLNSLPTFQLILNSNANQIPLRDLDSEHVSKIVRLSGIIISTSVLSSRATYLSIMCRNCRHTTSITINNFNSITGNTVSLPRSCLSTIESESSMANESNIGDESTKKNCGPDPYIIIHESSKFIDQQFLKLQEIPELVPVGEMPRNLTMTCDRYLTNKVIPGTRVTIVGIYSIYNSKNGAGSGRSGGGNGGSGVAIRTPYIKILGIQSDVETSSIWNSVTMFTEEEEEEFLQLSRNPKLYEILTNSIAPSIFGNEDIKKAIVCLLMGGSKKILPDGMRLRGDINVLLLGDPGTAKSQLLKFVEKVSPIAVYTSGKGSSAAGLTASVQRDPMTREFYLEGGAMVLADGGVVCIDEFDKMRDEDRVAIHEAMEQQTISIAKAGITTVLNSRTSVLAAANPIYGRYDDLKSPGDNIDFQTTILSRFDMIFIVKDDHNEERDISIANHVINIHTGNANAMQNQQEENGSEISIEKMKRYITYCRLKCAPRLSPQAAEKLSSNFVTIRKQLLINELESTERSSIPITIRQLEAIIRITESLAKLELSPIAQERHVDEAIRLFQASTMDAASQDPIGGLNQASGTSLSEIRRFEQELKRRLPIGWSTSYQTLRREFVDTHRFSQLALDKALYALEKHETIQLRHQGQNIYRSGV
Briefly: cross-linking.

The next assay addresses Mcm3 (S. cerevisiae, UniProt P24279 1-971). As to the kind of experiment: cryo-EM structure.
Another assay deals with T2, Orc1 (S. cerevisiae, UniProt P54784 1-914).
T2 sequence: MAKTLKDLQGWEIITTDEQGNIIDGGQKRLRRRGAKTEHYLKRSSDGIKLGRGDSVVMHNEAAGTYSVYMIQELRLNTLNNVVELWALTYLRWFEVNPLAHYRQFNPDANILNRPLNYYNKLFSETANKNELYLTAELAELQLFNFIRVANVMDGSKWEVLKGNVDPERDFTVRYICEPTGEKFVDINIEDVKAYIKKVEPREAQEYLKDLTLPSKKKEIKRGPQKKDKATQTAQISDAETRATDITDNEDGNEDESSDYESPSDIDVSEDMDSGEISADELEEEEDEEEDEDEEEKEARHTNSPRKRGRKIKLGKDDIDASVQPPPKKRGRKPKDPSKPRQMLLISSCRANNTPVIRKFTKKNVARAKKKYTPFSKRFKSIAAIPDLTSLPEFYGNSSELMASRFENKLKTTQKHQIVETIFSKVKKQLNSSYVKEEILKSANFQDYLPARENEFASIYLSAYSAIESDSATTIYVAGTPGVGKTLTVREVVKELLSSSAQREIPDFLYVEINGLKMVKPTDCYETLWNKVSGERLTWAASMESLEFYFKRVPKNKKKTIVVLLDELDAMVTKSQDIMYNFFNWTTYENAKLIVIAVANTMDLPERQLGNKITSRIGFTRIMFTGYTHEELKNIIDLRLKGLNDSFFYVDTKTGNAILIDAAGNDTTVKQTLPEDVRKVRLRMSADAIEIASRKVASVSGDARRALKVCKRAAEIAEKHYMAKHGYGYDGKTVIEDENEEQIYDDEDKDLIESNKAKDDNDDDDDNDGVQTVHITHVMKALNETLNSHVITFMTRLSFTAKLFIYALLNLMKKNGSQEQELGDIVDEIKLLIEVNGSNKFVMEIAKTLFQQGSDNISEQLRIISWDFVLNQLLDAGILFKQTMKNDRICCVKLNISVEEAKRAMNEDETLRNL
As to the kind of experiment: cryo-EM structure.

For a further assay, the target named is T3, Mcm7 (S. cerevisiae, UniProt P38132 1-845).
T3 sequence: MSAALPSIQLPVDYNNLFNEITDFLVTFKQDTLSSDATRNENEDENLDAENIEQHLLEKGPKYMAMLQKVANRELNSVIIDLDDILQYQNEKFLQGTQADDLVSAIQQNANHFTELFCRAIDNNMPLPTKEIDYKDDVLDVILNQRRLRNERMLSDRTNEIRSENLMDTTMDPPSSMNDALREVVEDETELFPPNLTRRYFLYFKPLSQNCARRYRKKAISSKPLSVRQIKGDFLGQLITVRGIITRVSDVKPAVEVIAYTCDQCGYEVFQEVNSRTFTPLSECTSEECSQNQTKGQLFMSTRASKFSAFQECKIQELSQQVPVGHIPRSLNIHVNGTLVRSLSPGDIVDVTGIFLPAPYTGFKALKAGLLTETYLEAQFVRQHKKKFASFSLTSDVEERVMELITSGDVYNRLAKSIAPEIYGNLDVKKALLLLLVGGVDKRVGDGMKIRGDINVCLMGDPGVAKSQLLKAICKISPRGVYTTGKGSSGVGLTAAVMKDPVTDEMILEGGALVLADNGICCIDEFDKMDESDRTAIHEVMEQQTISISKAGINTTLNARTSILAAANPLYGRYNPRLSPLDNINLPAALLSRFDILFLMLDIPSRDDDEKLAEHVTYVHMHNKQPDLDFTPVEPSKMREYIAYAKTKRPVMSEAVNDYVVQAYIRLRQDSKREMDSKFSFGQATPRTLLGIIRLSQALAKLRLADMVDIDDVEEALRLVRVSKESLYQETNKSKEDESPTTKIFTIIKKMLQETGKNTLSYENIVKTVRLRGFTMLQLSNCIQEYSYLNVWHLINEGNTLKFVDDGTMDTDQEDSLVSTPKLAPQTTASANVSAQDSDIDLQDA
Briefly: cryo-EM structure.

The assay “Orc2” addresses B1. Briefly: cross-linking.
A further assay addresses T4, Cdt1 (S. cerevisiae, UniProt P47112 1-604).
T4 sequence: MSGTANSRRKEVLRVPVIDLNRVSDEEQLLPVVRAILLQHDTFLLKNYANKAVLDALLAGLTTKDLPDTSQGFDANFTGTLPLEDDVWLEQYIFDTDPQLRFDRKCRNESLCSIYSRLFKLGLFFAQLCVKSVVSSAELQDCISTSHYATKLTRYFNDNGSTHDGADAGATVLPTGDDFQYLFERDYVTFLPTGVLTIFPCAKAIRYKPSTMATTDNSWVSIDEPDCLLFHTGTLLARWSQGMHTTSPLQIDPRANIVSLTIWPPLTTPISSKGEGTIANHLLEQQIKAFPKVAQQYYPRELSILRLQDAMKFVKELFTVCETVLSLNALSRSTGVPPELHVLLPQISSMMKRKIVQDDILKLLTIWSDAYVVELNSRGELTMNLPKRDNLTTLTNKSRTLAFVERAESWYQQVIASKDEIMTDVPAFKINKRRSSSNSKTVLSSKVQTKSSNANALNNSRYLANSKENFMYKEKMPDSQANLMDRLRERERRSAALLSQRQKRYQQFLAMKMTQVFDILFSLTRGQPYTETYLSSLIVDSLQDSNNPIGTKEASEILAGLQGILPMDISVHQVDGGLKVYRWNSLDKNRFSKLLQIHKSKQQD
Briefly: cross-linking.

The values below come from publication PMC5503505 (Nature structural & molecular biology, 2017).

Sequence of Mcm3 (P24279 whole entry): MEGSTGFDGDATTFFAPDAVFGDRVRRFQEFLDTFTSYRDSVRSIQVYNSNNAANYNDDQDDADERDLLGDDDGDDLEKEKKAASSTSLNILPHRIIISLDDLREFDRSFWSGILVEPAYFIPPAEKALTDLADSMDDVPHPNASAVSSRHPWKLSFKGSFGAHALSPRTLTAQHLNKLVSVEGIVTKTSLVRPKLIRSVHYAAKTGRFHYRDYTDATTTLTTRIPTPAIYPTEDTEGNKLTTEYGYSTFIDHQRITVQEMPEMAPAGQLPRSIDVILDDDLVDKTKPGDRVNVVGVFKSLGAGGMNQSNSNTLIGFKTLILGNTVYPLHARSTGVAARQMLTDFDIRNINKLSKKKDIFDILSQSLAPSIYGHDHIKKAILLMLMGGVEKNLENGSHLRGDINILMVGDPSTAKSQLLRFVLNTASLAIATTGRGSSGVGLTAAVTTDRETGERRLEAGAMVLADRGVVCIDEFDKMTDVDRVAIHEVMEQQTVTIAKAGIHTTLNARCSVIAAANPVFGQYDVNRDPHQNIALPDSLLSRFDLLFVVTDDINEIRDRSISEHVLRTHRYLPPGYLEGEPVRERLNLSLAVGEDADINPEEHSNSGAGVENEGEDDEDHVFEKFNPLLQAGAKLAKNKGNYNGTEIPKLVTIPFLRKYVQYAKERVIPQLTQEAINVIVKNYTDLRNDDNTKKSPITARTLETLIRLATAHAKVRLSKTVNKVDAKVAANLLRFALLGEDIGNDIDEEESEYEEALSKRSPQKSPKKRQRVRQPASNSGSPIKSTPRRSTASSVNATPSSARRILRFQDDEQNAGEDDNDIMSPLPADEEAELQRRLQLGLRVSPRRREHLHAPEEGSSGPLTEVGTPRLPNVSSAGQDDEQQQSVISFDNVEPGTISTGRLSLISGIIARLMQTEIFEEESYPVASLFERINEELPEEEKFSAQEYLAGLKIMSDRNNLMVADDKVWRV

On to B1, for which the binding result with Mcm5 and in the assay with Mcm3 was “binds” in each case.
In the case of B2, the binding result with Orc1 and with Mcm7 was “binds” each time.
Take B3: the binding result with Orc2 and with Cdt1 was “binds” each time.
